Test results: patent US10899824B2 (Polichem S.A., priority 2016, dated 2021)

Experiments:
HSV-1 [1] = experiment: Syncytia formation evaluation (qualitative neutralization assay); assay type: cell-based, HSV-1 (HF strain)
Procedure: (§1) Purified Fabs (Ex2(G2), Ex2B(G2), Ex2C(G2), Ex2H(G2) and Ex2I (G2) were pre-incubated (10 μg/mL) with a standard amount of HSV-1 or HSV-2 isolates. Appropriate experimental controls were also included. The different “infection-mix” was used to infect Vero E6 cells (adsorption 2 hours before change of medium).
(§2) After twenty hours, the cell monolayers were Fixed and Permeabilized with crystal violet containing solution allowing first a qualitative evaluation of Fabs biological activities against both HSV-1 and HSV-2 isolates (procedure described in the Materials and Methods section). The reduction of syncytia formation was assessed by bright field phase contrast optical microscopy. As already stated, this assay allowed a first evaluation of Fab potencies.
(§3) The qualitative assays (described in the Materials and Methods section) were performed on IgG1 format of selected anti-HSV-1 and 2 Fabs (FIG. 11).
(§4) In order to evaluate the potency of Fab Ex2, a qualitative assay using different dilutions was performed. Three different concentrations of Ex2 (10 μg/ml, 5 μg/ml and 2.5 μg/ml) were tested against HSV-1 and 2 through the syncytia formation assay.
(§5) Syncytia Formation Evaluation Through Bright Field Phase Contrast Optical Microscope Protocol: […]
(§6) The reduction of syncytia formation was assessed by bright field phase contrast optical microscope. […]

HSV-1 [2] = experiment: Plaque reduction assay; assay type: cell-based, HSV-1 (HF strain); conditions: 1 μg/mL
Procedure: (§7) Dose-response quantitative assay: the capability of Fab Ex2 to inhibit HSV infection was assessed by evaluating the presence of lysis plaques on cell monolayer due to HSV infection in the presence or in the absence of Fab Ex2. To confirm the IIF neutralization data, a plaque reduction assay was performed as quantitative evaluation.
(§8) Quantitative Neutralizing Activity Evaluation Through Plaque Reduction Assay Protocol:
(§9) 7×10^5 Vero cells/well were seeded in a 6-wells plate and grown in the appropriate complete medium supplemented with 10% FCS. Experiment was performed with cells at 100% confluence.
(§10) HSV-1 and HSV-2 viral stocks dilution (−5 and −4 respectively) were pre-incubated with purified Fab of interest at different concentrations (5, 2.5 and 1 μg/mL) in a final volume of 800 μL of complete DMEM, for 1 h at 37° C. and 5% CO2.
(§11) Experimental controls were added as well.
(§12) After washing the cells with a PBS 1× solution, viral solutions were added to the monolayers and incubated for 2 h at 37° C. and 5% CO2 for adsorption. […]
(§13) Neutralization activity was then assessed by counting the plaque forming units (PFU). In particular, the number of PFU in the cell monolayer infected with Fab-treated viruses was compared with the PFU counted for the virus control (same virus amount).

HSV-1 [3] = experiment: Quantitative neutralizing activity through indirect immunofluorescence (IIF), InCellAnalyzer count; assay type: cell-based, HSV-1 (HF strain); conditions: IgG1 Fab; Vero E6 cells
Procedure: (§14) The neutralizing activity of Fabs Ex2, Ex2B, Ex2C, Ex2H and Ex2I was evaluated using the InCellAnalyzer automated count system in order to calculate the IC50s of all Fab and obtain a dose-response curve. Several dilutions of the different Fabs were used in order to obtain the dose-response curve. In all sets of neutralization experiments several Fab dilutions were performed since only using a biological compound limit dilution was possible to obtain the exact amount of Fab able to inhibit viral infection.
(§15) Moreover, the same “dose-response” curve allowed the calculation of Fab IC50 which effectively depicts the in vitro Fab potency. The IC50 is the Fab concentration able to reduce by 50% the cell damage due to the infection of cell monolayer with a standard amount of virus (HSV-1 and HSV-2).
(§16) Quantitative Neutralizing Activity Evaluation Through Indirect Immunofluorescence (IIF) Assay Protocol: […]
(§17) Neutralization activity was then assessed by counting the immunofluorescence infection foci through InCellAnalyzer system.
(§18) The number of infection foci in the cell monolayer infected with viruses treated with the different Fab preparations was compared with the foci counted for the virus control (same virus amount)
(§19) The percentage of neutralization was then evaluated and a standard deviation from the mean was calculated as well (the experiment was performed in triplicate)

HSV-2 [4] = experiment: Plaque reduction assay; assay type: cell-based, HSV-2 (MS strain); conditions: due to very high potency
Procedure: as §7, §8, §9, §10, §11, §12, §13

HSV-2 [5] = experiment: Quantitative neutralizing activity through indirect immunofluorescence (IIF), InCellAnalyzer count; assay type: cell-based, HSV-2 (MS strain); conditions: IgG1 Fab; Vero E6 cells
Procedure: as §14, §15, §16, §17, §18, §19

HSV-2 [6] = experiment: Cell-to-cell infection inhibition (plaque areas, post-adsorption); assay type: cell-based; conditions: Fabs 200 ug/mL, IgGs 100 ug/mL
Procedure: (§20) Post post-adsorption assays have been performed in order to evaluate the contribution of IgGA in inhibiting “cell-to-cell” infection by measuring the plaque areas resulting from infected cells treated or untreated with FabA or IgGA.
(§21) Fabs tested in post-adsorption cell-to-cell infection inhibition assays have also been preliminary used at a concentration of 50 and 200 ug/mL against HSV-1 and HSV-2 tested isolates respectively*.
(§22) IgGs tested in post-adsorption “cell-to-cell” infection inhibition assays have also been preliminary used at a concentration of 25 and 100 ug/mL against HSV-1 and HSV-2 tested isolates respectively*.

HSV-1 [7] = experiment: as above; assay type: cell-based; conditions: Fabs 50 ug/mL, IgGs 25 ug/mL
Procedure: as §20, §21, §22

HSV-2 [8] = experiment: Syncytia formation evaluation (qualitative neutralization assay); assay type: cell-based, HSV-2 (MS strain)
Procedure: as §1, §2, §3, §4, §5, §6

B1: Ex2: human monoclonal Fab, VH SEQ ID NO.1 and VL SEQ ID NO.2, IgG2 Fab converted to IgG1 (antibody, listed as Homo sapiens, V domains shown)
VH: LESGGGVVQPGRSLRLSCAASGFTFTTFAMHWVRQAPGKGLEWLAFISYDGSNKYYADSVKGRFTISRDNSKNTLYLQMNSLRAEDTSIYYCAREVWNYADYWGQGALVTVSS
VL: ELTQSPGTLSSSPGHRATLSCKASAPLGSNHMAWYQQKPGQAPRLLIYGASTRATGVPARFTGSGSGTDFTLTISSLQPEDFATYYCQQANSFPRTFGQGTKVEIK
modifications: IgG1 constant regions
- inhibition of cellular disruption and syncytia formation, HSV-1 (HSV-1 [1]; 10 μg/ml, 5 μg/ml and 2.5 μg/ml, dose-dependent): strongly inhibit
- neutralizing potency of IgG1 format compared to IgG2 format, HSV-1 (HSV-1 [1]; IgG1 converted Fabs): increased potency
- HSV-1 plaque formation measured as PFU (HSV-1 [2]): inhibited
- HSV-1 (IC50 μg/mL ± CI 95%) (HSV-1 [3]): 0.7 (0.44 ± 1.21) μg/mL
- dose-response effect in HSV-2 plaque neutralization assay (HSV-2 [4]): a dose-response effect could not be measured
- HSV-2 (IC50 μg/mL ± CI 95%) (HSV-2 [5]): 0.2 (0.19 ± 0.23) μg/mL
- inhibition of plaque areas (cell-to-cell infection), HSV-2 (HSV-2 [6]): inhibits
- inhibition of plaque areas (cell-to-cell infection), HSV-1 (HSV-1 [7]): inhibits
- inhibition of HSV-2 infection (syncytia formation assay) (HSV-2 [8]; 10 μg/ml, 5 μg/ml and 2.5 μg/ml, very low concentrations): completely inhibit
- neutralizing potency of IgG1 format compared to IgG2 format, HSV-2 (HSV-2 [8]; IgG1 converted Fabs): increased potency
